Experimental findings from patent publication US20110239316A1 (PIERRE FABRE MEDICAMENT, published 2011) are described below.

The target in test [1] is human c-Met receptor (human, UniProt P08581 25-1390). Description: cell-based or functional assay.
The target of test [2] is C-Met-Rluc (R. reniformis, UniProt P08581 25-1390). Nature of the test: cell-based or functional assay.
C-Met-Rluc, sequence (P08581 25-1390): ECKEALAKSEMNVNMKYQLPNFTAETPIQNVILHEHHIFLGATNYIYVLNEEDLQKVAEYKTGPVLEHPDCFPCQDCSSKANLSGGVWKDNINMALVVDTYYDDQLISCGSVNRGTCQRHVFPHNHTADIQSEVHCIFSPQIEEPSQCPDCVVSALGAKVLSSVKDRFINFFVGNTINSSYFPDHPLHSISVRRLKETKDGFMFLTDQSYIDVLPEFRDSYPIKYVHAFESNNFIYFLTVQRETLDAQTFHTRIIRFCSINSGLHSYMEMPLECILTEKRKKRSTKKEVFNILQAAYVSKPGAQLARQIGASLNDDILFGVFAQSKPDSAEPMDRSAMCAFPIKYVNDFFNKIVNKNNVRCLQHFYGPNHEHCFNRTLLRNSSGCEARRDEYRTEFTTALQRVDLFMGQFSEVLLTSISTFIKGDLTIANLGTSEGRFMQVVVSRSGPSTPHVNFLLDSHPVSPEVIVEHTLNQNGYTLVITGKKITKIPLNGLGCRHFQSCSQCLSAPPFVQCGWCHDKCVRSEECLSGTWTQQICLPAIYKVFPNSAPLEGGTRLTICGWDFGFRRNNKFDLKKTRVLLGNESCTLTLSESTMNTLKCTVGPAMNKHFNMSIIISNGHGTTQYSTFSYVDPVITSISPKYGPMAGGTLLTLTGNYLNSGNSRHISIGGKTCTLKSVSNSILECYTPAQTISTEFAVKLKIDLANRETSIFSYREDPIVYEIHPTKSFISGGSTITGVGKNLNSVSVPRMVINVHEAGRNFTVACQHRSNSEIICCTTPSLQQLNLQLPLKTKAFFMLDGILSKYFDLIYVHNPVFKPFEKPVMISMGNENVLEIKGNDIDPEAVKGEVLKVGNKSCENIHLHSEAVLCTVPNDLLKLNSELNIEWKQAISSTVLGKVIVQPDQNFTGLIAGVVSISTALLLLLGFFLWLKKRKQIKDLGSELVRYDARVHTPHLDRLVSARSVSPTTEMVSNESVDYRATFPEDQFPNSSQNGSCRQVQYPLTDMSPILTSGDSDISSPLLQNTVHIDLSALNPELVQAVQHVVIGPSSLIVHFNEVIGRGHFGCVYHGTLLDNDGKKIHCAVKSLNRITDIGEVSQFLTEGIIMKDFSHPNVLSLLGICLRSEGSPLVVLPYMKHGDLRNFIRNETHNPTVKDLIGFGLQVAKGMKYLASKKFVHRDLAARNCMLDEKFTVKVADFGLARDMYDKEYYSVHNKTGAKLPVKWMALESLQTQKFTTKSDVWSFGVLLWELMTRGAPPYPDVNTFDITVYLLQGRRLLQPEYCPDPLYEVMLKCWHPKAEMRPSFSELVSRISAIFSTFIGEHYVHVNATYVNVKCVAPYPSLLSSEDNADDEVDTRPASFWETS

human c-Met receptor, sequence (P08581 25-1390): as above

B1: [224G11] [Hz1] (antibody, V domains shown)
VH: QVQLVQSGAEVKKPGASVKVSCKASGYIFTAYTMHWVRQAPGQGLEWMGWIKPNNGLANYAQKFQGRVTMTRDTSISTAYMELSRLRSDDTAVYYCARSEITTEFDYWGQGTLVTVSS
VL: DIVLTQSPDSLAVSLGERATINCKSSESVDSYANSFMHWYQQKPGQPPKLLIYRASTRESGVPDRFSGSGSRTDFTLTISSLQAEDVAVYYCQQSKEDPLTFGGGTKVEIKR
With B1, the “inhibition of HGF-induced proliferation of NCI-H441 cells ([3H]thymidine), FIG. 14A” value (“inhibition … FIG. 14A” below) in test [1] is about 46%.

B2: [224G11] [TH7 Hz2] (antibody, human IgG1, V domains shown)
VH: QVQLVQSGAEVKKPGASVKVSCKASGYIFTAYTMHWVRQAPGQGLEWMGWIKPNNGLANYAQKFQGRVTMTRDTSISTAYMELSRLRSDDTAVYYCARSEITTEFDYWGQGTLVTVSS
VL: DIVMTQSPDSLAVSLGERATINCKSSESVDSYANSFMHWYQQKPGQPPKLLIYRASTRESGVPDRFSGSGSGTDFTLTISSLQAEDVAVYYCQQSKEDPLTFGGGTKVEIKR
For the molecule B2, in test [2], the “inhibition of HGF induced BRET signal, c-Met activation model” value (shortened to “inhibition … c-Met activation model”) came to 41.8% and the “inhibition of HGF induced BRET signal, c-Met dimerization model” value (shortened to “inhibition … c-Met dimerization model”) is 35.8%.

B3: [224G11] [TH7 Hz1] (antibody, human IgG1, V domains shown)
VH: QVQLVQSGAEVKKPGASVKVSCKASGYIFTAYTMHWVRQAPGQGLEWMGWIKPNNGLANYAQKFQGRVTMTRDTSISTAYMELSRLRSDDTAVYYCARSEITTEFDYWGQGTLVTVSS
VL: DIVLTQSPDSLAVSLGERATINCKSSESVDSYANSFMHWYQQKPGQPPKLLIYRASTRESGVPDRFSGSGSRTDFTLTISSLQAEDVAVYYCQQSKEDPLTFGGGTKVEIKR
Take B3: the “inhibition of HGF-induced proliferation of NCI-H441 cells ([3H]thymidine), FIG. 15” value (from here on “inhibition … FIG. 15”) in test [1] came to 67%. In test [2], the “inhibition … c-Met activation model” value was 59.9% and the “inhibition … c-Met dimerization model” value turned out to be 52.2%.

B4: [224G11] [Hz3] (antibody, V domains shown)
VH: QVQLVQSGAEVKKPGASVKVSCKASGYIFTAYTMHWVRQAPGQGLEWMGWIKPNNGLANYAQKFQGRVTMTRDTSISTAYMELSRLRSDDTAVYYCARSEITTEFDYWGQGTLVTVSS
VL: DIVMTQSPDSLAVSLGERATINCKSSESVDSYANSFLHWYQQKPGQPPKLLIYRASTRESGVPDRFSGSGSGTDFTLTISSLQAEDVAVYYCQQSKEDPLTFGGGTKVEIKR
Regarding B4, in test [1], the “inhibition … FIG. 14A” value is about 35%.

B5: [224G11] [TH7 Hz3] (antibody, human IgG1, V domains shown)
VH: QVQLVQSGAEVKKPGASVKVSCKASGYIFTAYTMHWVRQAPGQGLEWMGWIKPNNGLANYAQKFQGRVTMTRDTSISTAYMELSRLRSDDTAVYYCARSEITTEFDYWGQGTLVTVSS
VL: DIVMTQSPDSLAVSLGERATINCKSSESVDSYANSFLHWYQQKPGQPPKLLIYRASTRESGVPDRFSGSGSGTDFTLTISSLQAEDVAVYYCQQSKEDPLTFGGGTKVEIKR
Turning to B5, in test [1], the “inhibition … FIG. 15” value was determined as 76%. In test [2], the “inhibition … c-Met activation model” value is 57.9% and the “inhibition … c-Met dimerization model” value is 49.4%.

B6: [224G11] [Hz2] (antibody, V domains shown)
VH: QVQLVQSGAEVKKPGASVKVSCKASGYIFTAYTMHWVRQAPGQGLEWMGWIKPNNGLANYAQKFQGRVTMTRDTSISTAYMELSRLRSDDTAVYYCARSEITTEFDYWGQGTLVTVSS
VL: DIVMTQSPDSLAVSLGERATINCKSSESVDSYANSFMHWYQQKPGQPPKLLIYRASTRESGVPDRFSGSGSGTDFTLTISSLQAEDVAVYYCQQSKEDPLTFGGGTKVEIKR
Take B6: the “inhibition … FIG. 14A” value in test [1] was about 30%.

B7: murine 224G11 Mab (antibody, V domains shown)
VH: EVQLQQSGPELVKPGASVKISCKTSGYIFTAYTMHWVRQSLGESLDWIGGIKPNNGLANYNQKFKGKATLTVDKSSSTAYMDLRSLTSEDSAVYYCARSEITTEFDYWGQGTALTVSS
VL: DIVLTQSPASLAVSLGQRATISCRASESVDSYANSFMHWYQQKPGQPPKLLIYRASNLESGIPARFSGSGSRTDFTLTINPVEADDVATYYCQQSKEDPLTFGSGTKLEMKR
As for B7, in test [1], the “inhibition … FIG. 14A” value worked out at 66%; the “inhibition of HGF-induced proliferation of NCI-H441 cells ([3H]thymidine), FIG. 14B” value (shortened to “inhibition … FIG. 14B”) stood at 57%; the “inhibition … FIG. 15” value was 74%. Further, in test [2], the “inhibition … c-Met activation model” value was 56.4% and the “inhibition … c-Met dimerization model” value amounted to 59.4%.

B8: [224G11] [MUP9H chim] (antibody, V domains shown)
VH: EVQLQQSGPELVKPGASVKISCKTSGYIFTAYTMHWVRQSLGESLDWIGGIKPNNGLANYNQKFKGKATLTVDKSSSTAYMDLRSLTSEDSAVYYCARSEITTEFDYWGQGTALTVSS
VL: DIVLTQSPASLAVSLGQRATISCRASESVDSYANSFMHWYQQKPGQPPKLLIYRASNLESGIPARFSGSGSRTDFTLTINPVEADDVATYYCQQSKEDPLTFGSGTKLEMKR
As for B8, the “inhibition … FIG. 14B” value in test [1] amounted to 78%. Moreover, in test [2], the “BRET signal with Mab alone, c-Met activation model” value (“BRET signal with Mab alone” for short) was 7.6%; the “inhibition … c-Met activation model” value came to 64.4%; the “inhibition … c-Met dimerization model” value came to 64.4%.

B9: [224G11] [MH chim] (antibody, V domains shown)
VH: EVQLQQSGPELVKPGASVKISCKTSGYIFTAYTMHWVRQSLGESLDWIGGIKPNNGLANYNQKFKGKATLTVDKSSSTAYMDLRSLTSEDSAVYYCARSEITTEFDYWGQGTALTVSS
VL: DIVLTQSPASLAVSLGQRATISCRASESVDSYANSFMHWYQQKPGQPPKLLIYRASNLESGIPARFSGSGSRTDFTLTINPVEADDVATYYCQQSKEDPLTFGSGTKLEMKR
Turning to B9, in test [1], the “inhibition … FIG. 14B” value amounted to 79%. Further, in test [2], the “BRET signal with Mab alone” value turned out to be 5.1%; the “inhibition … c-Met activation model” value was found to be 59.7%; the “inhibition … c-Met dimerization model” value is 61.8%.

B10: [224G11] [MMCH chim] (antibody, V domains shown)
VH: EVQLQQSGPELVKPGASVKISCKTSGYIFTAYTMHWVRQSLGESLDWIGGIKPNNGLANYNQKFKGKATLTVDKSSSTAYMDLRSLTSEDSAVYYCARSEITTEFDYWGQGTALTVSS
VL: DIVLTQSPASLAVSLGQRATISCRASESVDSYANSFMHWYQQKPGQPPKLLIYRASNLESGIPARFSGSGSRTDFTLTINPVEADDVATYYCQQSKEDPLTFGSGTKLEMKR
For B10, in test [1], the “inhibition … FIG. 14B” value was found to be 84%. In test [2], the “BRET signal with Mab alone” value is -2%; the “inhibition … c-Met activation model” value was 53.2%; the “inhibition … c-Met dimerization model” value worked out at 52.5%.

B11: [224G11]chim (antibody, human IgG1, V domains shown)
VH: EVQLQQSGPELVKPGASVKISCKTSGYIFTAYTMHWVRQSLGESLDWIGGIKPNNGLANYNQKFKGKATLTVDKSSSTAYMDLRSLTSEDSAVYYCARSEITTEFDYWGQGTALTVSS
VL: DIVLTQSPASLAVSLGQRATISCRASESVDSYANSFMHWYQQKPGQPPKLLIYRASNLESGIPARFSGSGSRTDFTLTINPVEADDVATYYCQQSKEDPLTFGSGTKLEMKR
B11: in test [1], the “inhibition … FIG. 14A” value is 19% and the “inhibition … FIG. 15” value stood at 33%. In test [2], the “inhibition … c-Met activation model” value was determined as 34.5% and the “inhibition … c-Met dimerization model” value amounted to 28.9%.

B12: [224G11] [TH7 chim] (antibody, human IgG1)
heavy: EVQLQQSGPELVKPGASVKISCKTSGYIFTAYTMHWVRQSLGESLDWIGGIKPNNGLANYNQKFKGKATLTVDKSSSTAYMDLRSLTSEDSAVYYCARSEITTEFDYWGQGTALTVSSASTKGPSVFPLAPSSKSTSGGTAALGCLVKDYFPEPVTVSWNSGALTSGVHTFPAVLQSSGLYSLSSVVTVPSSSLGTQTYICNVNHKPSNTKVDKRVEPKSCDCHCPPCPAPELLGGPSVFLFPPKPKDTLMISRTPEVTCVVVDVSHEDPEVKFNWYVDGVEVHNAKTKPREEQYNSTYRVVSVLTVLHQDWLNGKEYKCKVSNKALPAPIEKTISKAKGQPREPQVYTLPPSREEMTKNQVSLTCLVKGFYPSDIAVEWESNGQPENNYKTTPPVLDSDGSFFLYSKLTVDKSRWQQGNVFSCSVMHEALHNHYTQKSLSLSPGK
light: DIVLTQSPASLAVSLGQRATISCRASESVDSYANSFMHWYQQKPGQPPKLLIYRASNLESGIPARFSGSGSRTDFTLTINPVEADDVATYYCQQSKEDPLTFGSGTKLEMKRTVAAPSVFIFPPSDEQLKSGTASVVCLLNNFYPREAKVQWKVDNALQSGNSQESVTEQDSKDSTYSLSSTLTLSKADYEKHKVYACEVTHQGLSSPVTKSFNRGEC
In the case of B12, in test [1], the “inhibition … FIG. 14B” value was determined as 93% and the “inhibition … FIG. 15” value amounted to 81%. Moreover, in test [2], the “BRET signal with Mab alone” value is -6.9%; the “inhibition … c-Met activation model” value came out at 73.8%; the “inhibition … c-Met dimerization model” value was found to be 64.4%.

B13: [224G11] [IgG2 chim] (antibody)
heavy: EVQLQQSGPELVKPGASVKISCKTSGYIFTAYTMHWVRQSLGESLDWIGGIKPNNGLANYNQKFKGKATLTVDKSSSTAYMDLRSLTSEDSAVYYCARSEITTEFDYWGQGTALTVSSASTKGPSVFPLAPCSRSTSESTAALGCLVKDYFPEPVTVSWNSGALTSGVHTFPAVLQSSGLYSLSSVVTVPSSNFGTQTYTCNVDHKPSNTKVDKTVERKCCVECPPCPAPPVAGPSVFLFPPKPKDTLMISRTPEVTCVVVDVSHEDPEVQFNWYVDGVEVHNAKTKPREEQFNSTFRVVSVLTVVHQDWLNGKEYKCKVSNKGLPAPIEKTISKTKGQPREPQVYTLPPSREEMTKNQVSLTCLVKGFYPSDIAVEWESNGQPENNYKTTPPMLDSDGSFFLYSKLTVDKSRWQQGNVFSCSVMHEALHNHYTQKSLSLSPG
light: DIVLTQSPASLAVSLGQRATISCRASESVDSYANSFMHWYQQKPGQPPKLLIYRASNLESGIPARFSGSGSRTDFTLTINPVEADDVATYYCQQSKEDPLTFGSGTKLEMKRTVAAPSVFIFPPSDEQLKSGTASVVCLLNNFYPREAKVQWKVDNALQSGNSQESVTEQDSKDSTYSLSSTLTLSKADYEKHKVYACEVTHQGLSSPVTKSFNRGEC
Take B13: in test [2], the “inhibition … c-Met dimerization model” value amounted to 62.4%.
